This sample holds only a part of the variants without activity.
B1: TPR 5TU (parent)
chain: GGAUCUUCUCGAUCUAACAAAAAAGACAAAUCUGCCACAAAGCUUGAGAGCAUCUUCGGAUGCAGAGGCGGCAGCCUUCGGUGGCGCGAUAGCGCCAACGUUCUCAACUAUGACACGCAAAACGCGUGCUCCGUUGAAUGGAGUUUAUCAUG

Variants of: B1
Experiment: polymerase ribozyme fitness, log enrichment relative to wild type (log ratio); higher = more active; in vitro selection for triplet polymerase activity
Outline: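 Mutant libraries of each subunit of a heterodimeric triplet polymerase ribozyme were built by PCR and transcribed. Each library went through one round of in vitro selection in triplicate: annealing with biotinylated primer, partner subunit and triplets, frozen incubation at −7 °C, gel excision of extended constructs, streptavidin-bead capture and RT-PCR. Input and output libraries were Illumina-sequenced; only genotypes with ≥10 input reads and ≥1 read per output were kept. Fitness is log2(genotype enrichment/wild-type enrichment), using inverse-variance-weighted replicate averages.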

Q: With A22G U53C U82G A98U as the variant, how does the “polymerase ribozyme fitness (log ratio)” value read?
A: 0.397

Q: For U56C C85G U135C A142U G152A, which “polymerase ribozyme fitness (log ratio)” value is on record?
A: ≤ -4.2

Q: Which “polymerase ribozyme fitness (log ratio)” value does the source give for A41C U135C here?
A: -3.55

Q: Which “polymerase ribozyme fitness (log ratio)” value does the source give for C51A A89C C93U G117U A137U A150C here?
A: ≤ -4.2

Q: With A29U G141C as the variant, how does the “polymerase ribozyme fitness (log ratio)” value read?
A: -3.49

Q: For A17U C87G, which “polymerase ribozyme fitness (log ratio)” value is on record?
A: -3.75

Q: For C14G A23U C54G G67U A142U U151A, which “polymerase ribozyme fitness (log ratio)” value is on record?
A: ≤ -4.2

Q: With A17C G50U U56A G58C G84U as the variant, how does the “polymerase ribozyme fitness (log ratio)” value read?
A: -1.22

Q: For A20U A22U C57A C96G C125U, which “polymerase ribozyme fitness (log ratio)” value is on record?
A: -3.05

Q: For A12U U31G A60G G83C, which “polymerase ribozyme fitness (log ratio)” value is on record?
A: -1.56

Q: Which “polymerase ribozyme fitness (log ratio)” value does the source give for A52C G88A here?
A: -3.57

Q: Which “polymerase ribozyme fitness (log ratio)” value does the source give for A49U A66G G84A C87U A98G here?
A: ≤ -4.2

Q: For C99U G143C, which “polymerase ribozyme fitness (log ratio)” value is on record?
A: -2.66

Q: Which “polymerase ribozyme fitness (log ratio)” value does the source give for A41C C125G here?
A: -0.815

Q: With A12G A73U C96A U109A C116U as the variant, how does the “polymerase ribozyme fitness (log ratio)” value read?
A: -2.66

Q: Which “polymerase ribozyme fitness (log ratio)” value does the source give for U55G G58C here?
A: -0.558

Q: For C18G G50A C76U A115G A119G, which “polymerase ribozyme fitness (log ratio)” value is on record?
A: -3.18

Q: Which “polymerase ribozyme fitness (log ratio)” value does the source give for C69A A121G here?
A: -1.74

Q: For A52C U53G C72U G83A G124A, which “polymerase ribozyme fitness (log ratio)” value is on record?
A: ≤ -4.2

Q: For C69U G136U U146C, which “polymerase ribozyme fitness (log ratio)” value is on record?
A: -2.94

Q: Which “polymerase ribozyme fitness (log ratio)” value does the source give for A16G C32A C38G U56A A60C C87A C123U A150C here?
A: ≤ -4.2

Q: For G50U G74A C85U, which “polymerase ribozyme fitness (log ratio)” value is on record?
A: -3.88

Q: For U56A U145G, which “polymerase ribozyme fitness (log ratio)” value is on record?
A: -0.287

Q: With U31A C38U C95U C96A as the variant, how does the “polymerase ribozyme fitness (log ratio)” value read?
A: -1.16

Q: For A49G U53C A98U A121G, which “polymerase ribozyme fitness (log ratio)” value is on record?
A: -1.87

Q: For A26C U78A G84A G126C C149G, which “polymerase ribozyme fitness (log ratio)” value is on record?
A: ≤ -4.2

Q: For A20U A49C G50C G92U U146G C149U, which “polymerase ribozyme fitness (log ratio)” value is on record?
A: ≤ -4.2

Q: With G11U C18G C54A G88A C118A as the variant, how does the “polymerase ribozyme fitness (log ratio)” value read?
A: ≤ -4.2

Q: Which “polymerase ribozyme fitness (log ratio)” value does the source give for A47C C85G C96U C125U here?
A: ≤ -4.2

Q: With A19U G50U as the variant, how does the “polymerase ribozyme fitness (log ratio)” value read?
A: -0.0269

Q: With C54U A115U as the variant, how does the “polymerase ribozyme fitness (log ratio)” value read?
A: -2.4

Q: Which “polymerase ribozyme fitness (log ratio)” value does the source give for C8A A49G G71A C93U G152A here?
A: ≤ -4.2

Q: For C14A A21C A22C, which “polymerase ribozyme fitness (log ratio)” value is on record?
A: -0.829

Q: For U102G C116G, which “polymerase ribozyme fitness (log ratio)” value is on record?
A: -1.67

Q: For A12U G59U G94C C114U, which “polymerase ribozyme fitness (log ratio)” value is on record?
A: -2.68

Q: For C27G C35U G74U C118U U130A A137U, which “polymerase ribozyme fitness (log ratio)” value is on record?
A: ≤ -4.2

Q: Which “polymerase ribozyme fitness (log ratio)” value does the source give for C5G A23G A49U U77G G86A A137G here?
A: ≤ -4.2

Q: Which “polymerase ribozyme fitness (log ratio)” value does the source give for U56A C149A here?
A: -3.67

Q: Which “polymerase ribozyme fitness (log ratio)” value does the source give for U6G A23G U144G here?
A: -3.95

Q: For C8A C27U G70A C96U, which “polymerase ribozyme fitness (log ratio)” value is on record?
A: ≤ -4.2

Q: With A17U A19U A22U U61A G83A G84A G100U as the variant, how does the “polymerase ribozyme fitness (log ratio)” value read?
A: ≤ -4.2

Q: With U90C U102C A107U as the variant, how does the “polymerase ribozyme fitness (log ratio)” value read?
A: ≤ -4.2

Q: Which “polymerase ribozyme fitness (log ratio)” value does the source give for A19G A29G G92A C116G here?
A: -3.8

Q: For U15G U45C G71A G94U U134C A138U U145G, which “polymerase ribozyme fitness (log ratio)” value is on record?
A: ≤ -4.2

Q: Which “polymerase ribozyme fitness (log ratio)” value does the source give for C8G A24G C76A U139A A142C U144C U148G here?
A: ≤ -4.2

Q: With U13G G84U as the variant, how does the “polymerase ribozyme fitness (log ratio)” value read?
A: -3.13

Q: Which “polymerase ribozyme fitness (log ratio)” value does the source give for U55A U56A A97U here?
A: -0.565

Q: With C10G C14U A28U U53A A122C as the variant, how does the “polymerase ribozyme fitness (log ratio)” value read?
A: ≤ -4.2

Q: Which “polymerase ribozyme fitness (log ratio)” value does the source give for G50A C108A G124U U148G here?
A: ≤ -4.2

Q: Which “polymerase ribozyme fitness (log ratio)” value does the source give for G34A C93A here?
A: -3.6

Q: For U31A C95G C125A, which “polymerase ribozyme fitness (log ratio)” value is on record?
A: -1.34

Q: Which “polymerase ribozyme fitness (log ratio)” value does the source give for C27U C76G G84U here?
A: ≤ -4.2

Q: With A52U U61G G80C C87G G94U A121U as the variant, how does the “polymerase ribozyme fitness (log ratio)” value read?
A: ≤ -4.2

Q: Which “polymerase ribozyme fitness (log ratio)” value does the source give for C14U C85A U134G A142G A150U here?
A: ≤ -4.2

Q: For C54U C85G A91U, which “polymerase ribozyme fitness (log ratio)” value is on record?
A: ≤ -4.2

Q: For C5U C85G, which “polymerase ribozyme fitness (log ratio)” value is on record?
A: -1.7

Q: For U55A A60U U101G, which “polymerase ribozyme fitness (log ratio)” value is on record?
A: -0.433

Q: Which “polymerase ribozyme fitness (log ratio)” value does the source give for A40U C51U G83A here?
A: -0.935

Q: Which “polymerase ribozyme fitness (log ratio)” value does the source give for C8U A60G A121C here?
A: -3.73

Q: With A12G A19C A40G U45C G92A G141A as the variant, how does the “polymerase ribozyme fitness (log ratio)” value read?
A: ≤ -4.2

Q: For A23G C51G U53A A60G G84A U104G C116U A121C, which “polymerase ribozyme fitness (log ratio)” value is on record?
A: ≤ -4.2

Q: With C36U C87A G117U as the variant, how does the “polymerase ribozyme fitness (log ratio)” value read?
A: ≤ -4.2

Q: For C85U C118U, which “polymerase ribozyme fitness (log ratio)” value is on record?
A: -0.662

Q: For U31C U55A G86C, which “polymerase ribozyme fitness (log ratio)” value is on record?
A: -2.47

Q: Which “polymerase ribozyme fitness (log ratio)” value does the source give for C63U G80A A97G A110G here?
A: -4.19

Q: For C75U G84U C99U A115C, which “polymerase ribozyme fitness (log ratio)” value is on record?
A: -3.35

Q: With G11C C54U C85U A115G as the variant, how does the “polymerase ribozyme fitness (log ratio)” value read?
A: -3.49

Q: Which “polymerase ribozyme fitness (log ratio)” value does the source give for C36U C85U G124C here?
A: -2.46

Q: For U77A G86A C116G A121C, which “polymerase ribozyme fitness (log ratio)” value is on record?
A: ≤ -4.2

Q: Which “polymerase ribozyme fitness (log ratio)” value does the source give for C5G G141C here?
A: -0.606

Q: Which “polymerase ribozyme fitness (log ratio)” value does the source give for C8A U31G A37G G42A G83A here?
A: ≤ -4.2

Q: With A16G A23U A29G A37U C43U C79G C99A A122G as the variant, how does the “polymerase ribozyme fitness (log ratio)” value read?
A: ≤ -4.2

Q: Which “polymerase ribozyme fitness (log ratio)” value does the source give for A121G here?
A: -0.0563

Q: Which “polymerase ribozyme fitness (log ratio)” value does the source give for U55G G83C U135A G136A C149A here?
A: ≤ -4.2

Q: For A12U C51G G88C C108G G117C, which “polymerase ribozyme fitness (log ratio)” value is on record?
A: ≤ -4.2

Q: For U13A A21C U56A A60G G92U U102A C114U C123U, which “polymerase ribozyme fitness (log ratio)” value is on record?
A: -3.84

Q: With A23U C99U as the variant, how does the “polymerase ribozyme fitness (log ratio)” value read?
A: -3.84

Q: With A16U A21G C32U G50C U151G as the variant, how does the “polymerase ribozyme fitness (log ratio)” value read?
A: ≤ -4.2

Q: With C5A U55G G68C as the variant, how does the “polymerase ribozyme fitness (log ratio)” value read?
A: ≤ -4.2

Q: With G81C G83U G133A as the variant, how does the “polymerase ribozyme fitness (log ratio)” value read?
A: -3.88

Q: Which “polymerase ribozyme fitness (log ratio)” value does the source give for A28U A40U A49C G68U U90G C96U A107G A110C here?
A: ≤ -4.2

Q: With C18G C116U as the variant, how does the “polymerase ribozyme fitness (log ratio)” value read?
A: -0.663

Q: Which “polymerase ribozyme fitness (log ratio)” value does the source give for A17C C57U C93A U101G U144A here?
A: -2.86

Q: Which “polymerase ribozyme fitness (log ratio)” value does the source give for A17G A26C A40U A47C G59A G68A U109G C116G A119C here?
A: ≤ -4.2
